The target in the assay is Brucella adipic acid activated regulator (BaaR), residues 21-284 (Brucella abortus). Description: crystal structure.

Substance “Brucella adipic acid activated regulator (BaaR), residues 21-284 (domain or fragment)” displayed a stoichiometry N of 2.

Broadly, the stoichiometry N is the number of molecules, sites or subunits per partner or assembly.
